For the assay, the target named is T1, Rad50 recombinant protein (Sulfolobus acidocaldarius) (S. acidocaldarius, UniProt O33600 1-886).
T1 construct: Rad50, Sulfolobus acidocaldarius, purified recombinant protein; source: recombinant, purified (Ni-NTA, gel filtration through Sephadex 200)
T1 sequence (looked up): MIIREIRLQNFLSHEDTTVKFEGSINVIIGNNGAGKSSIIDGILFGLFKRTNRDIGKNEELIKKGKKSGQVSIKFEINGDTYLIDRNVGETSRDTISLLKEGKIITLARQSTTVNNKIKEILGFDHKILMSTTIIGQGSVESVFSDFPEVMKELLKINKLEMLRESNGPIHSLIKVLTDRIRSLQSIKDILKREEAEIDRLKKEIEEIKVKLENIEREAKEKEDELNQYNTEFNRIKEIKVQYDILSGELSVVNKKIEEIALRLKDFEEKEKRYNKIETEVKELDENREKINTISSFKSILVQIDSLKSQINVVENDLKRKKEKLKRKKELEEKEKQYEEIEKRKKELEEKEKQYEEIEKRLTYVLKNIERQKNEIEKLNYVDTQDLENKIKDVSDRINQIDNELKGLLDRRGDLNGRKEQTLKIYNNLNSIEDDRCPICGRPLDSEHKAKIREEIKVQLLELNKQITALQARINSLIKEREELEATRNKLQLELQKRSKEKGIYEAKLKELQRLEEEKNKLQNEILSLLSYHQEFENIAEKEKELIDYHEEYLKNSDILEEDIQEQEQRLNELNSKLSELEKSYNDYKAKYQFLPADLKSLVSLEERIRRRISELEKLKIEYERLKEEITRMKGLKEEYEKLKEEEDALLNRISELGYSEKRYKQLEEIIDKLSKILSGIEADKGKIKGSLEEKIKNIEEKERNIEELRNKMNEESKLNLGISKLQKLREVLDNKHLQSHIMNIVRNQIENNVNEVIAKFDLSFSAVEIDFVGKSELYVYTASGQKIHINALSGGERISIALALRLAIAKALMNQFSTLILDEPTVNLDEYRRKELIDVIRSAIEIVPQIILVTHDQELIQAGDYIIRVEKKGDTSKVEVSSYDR
Briefly: co-IP; anti-Rad50 purified IgGs and protein A-sepharose on a mixture of purified recombinant proteins (60 nM Rad50, Mre11 and NurA, 300 nM HerA) in IP buffer (20 mM Hepes pH 7.5, 100 mM NaCl, 15 mM MgCl2, 5 mM beta-mercaptoethanol); 4°C; immunoblot. Particulars: both partners purified.

B1: Mre11 recombinant protein (Sulfolobus acidocaldarius) (natural protein, S. acidocaldarius, UniProt Q8NKQ0 1-382, looked up)
chain: MQLLHISDTHLGKRQYNLESREKDVYDTFTQLIDIAINEHVKAVIHTGDLFDVNNPPNRAKLHAIKELKRLKDHNIPFICIAGDHDSPKRKEEIYPQRILEEFNLIKILQKIDNRVKLENVEVYGISHISNVSVNDLKEQLSKVKPETRKSILMLHQGIRTYLPYQGAWQIELSDLPKGFSLYAVGHLHSRRKDYLDGGALIEIAGSPDIMREEEIEDYQKSKKGATLIDMSGDLPSINYINVNIRDQLVLDINVDKIEQSIESVIQKLKENVKNDKKPILHIELEGTVPIRKDVLMTKLQALRDYVEHYRIYKNNIVSIKEENLKTKLKTTYSSLNDIIADYLKGIGYTDEETKIIIDIINEEDEKKVEELLKKFAGVEDK
notes: Mre11, Sulfolobus acidocaldarius, purified recombinant protein; source: recombinant, purified (Ni-NTA, gel filtration through Sephadex 200)
B1: the binding result is listed as “binds”.

B2: HerA recombinant protein (Sulfolobus acidocaldarius) (natural protein, S. acidocaldarius, UniProt F2Z5Z6 1-495, looked up)
chain: MTIGYIIGSATINEATAILEQKIRAGYYVILEYDGDKILGLITNVYTGSPLLDDNLNDVKFVQRIKQLEANKIPFFIKARIKLLCKLDGKFTQPDLPPVAGTPVRLASDEELSTVFSAGDVRIGKLIGSNVEVKIRLNPLSRHLAILAATGSGKSNTVAILSQRLVEIGGSILIFDYHGEYYDSTLPNLNIIEPKLNPLYLSVNEFATLLEIRENANIQYRIIRRTFNQLKEEINNEIKEGKTSLAELNSNFFERLKVKIEEEGRNEKRKESKDEVLNKVEDFAERYSDIIDITFGDVINKIKLGKINVVNLSSLDEDAIDAIVAHYLRRILTSRKENKIKKDSGLKFPILTVVEEAHVLLSKDTNTLTKKWAGRIAREGRKFGVGLIIVSQRPKGLDENILSQMTNKIILKIVEPSDKKYVLETSDNLSEDLADGLSSLDTGEAIIIGNVVKLPTIIKIDKFEGKLSGSDPNLTEEWKRAKEEEIVHSDVSDWG
notes: HerA bipolar DNA helicase, Sulfolobus acidocaldarius, purified recombinant protein; also called HerA bipolar helicase
For the molecule B2, the binding result was “binds”.

The record behind these values is article PMC2288612, “The Mre11 protein interacts with both Rad50 and the HerA bipolar helicase and is recruited to DNA following gamma irradiation in the archaeon Sulfolobus acidocaldarius” (BMC Molecular Biology, 2008).
